Reference: the PETadex activity labels (doi:10.1038/s41467-025-61599-z)

What was measured:
[1] = Proxy for plastic degradation [UPLC/UHPLC]; settings: pH 9
pNPB = assay: Proxy for plastic degradation [Absorbance @ 430nm] (min⁻¹); settings: pH 8; part of the chain shown
PET [2] = assay: Proxy for plastic degradation [Released monomer concentration (HPLC/LC-MS) (TPA+MHET)]
PET [3] = assay: Proxy for plastic degradation [Released monomer concentration (HPLC/LC-MS) (MHET+TPA)]; settings: pH 9, part of the chain shown
PET [4] = assay: Proxy for plastic degradation [kcat/Km (catalytic efficiency)] (mM⁻¹s⁻¹); settings: pH 8
[5] = Proxy for plastic degradation [Released monomer concentration (HPLC/LC-MS) (TPA+MHET)]

B1: unnamed (protein)
chain: MSHRFRLAAAVCVAAAILVPATPAAAADPWDAPGPYATAVQIGAVNTLYYPRDIASSPRRHPVIVWGNGTGAAPLVYRDLLLYWASHGFIVSAANTPASNLGISMRLGIDALAAADADPGSIFRGKVDLAHIGASGHSQGGAAAIVVGADPRIDAILPIQPGPLADIDDVHVPALLLAGQHDSIVFPFLVKAFYNDATHIPAIYAEVRGADHFTVVGDPGPFAAPTTAWFRFQLMGDTAARAEFYGPSCGICTDTRTWSDVRRNALVP
[1]; 30 °C
  Proxy for plastic degradation: 13 µM
[1]; 40 °C
  Proxy for plastic degradation: 13.4 µM
[1]; 50 °C
  Proxy for plastic degradation: 14.2 µM
[1]; 55 °C
  Proxy for plastic degradation: 13.4 µM
[1]; 60 °C
  Proxy for plastic degradation: 14.1 µM

B2: unnamed (protein)
chain: MGGGGEDNVFAEPGDFDVVTEPGGRDCTIFRPEQLGDDHAVVIWGNGTGASPNTYAGLLRHYASHGFVVVAANTSNAGTGEDMLNCLDFLEGSQLASSVDFSKVGATGHSQGGGGAIMAGVDPRIATTAPIEGFTLGLGHDRDSHDQQNGPMLILSGSADRLVNPRTNHAPLFDATNVPAFWAIAQGAGHFEPVGDGGDFRGISTAWFLFQLEDDPEATTHFVGDDCFVCEDPGFDVEGVKEID
[1]; 30 °C
  Proxy for plastic degradation: 14 µM
[1]; 40 °C
  Proxy for plastic degradation: 13.8 µM
[1]; 50 °C
  Proxy for plastic degradation: 15.8 µM
[1]; 55 °C
  Proxy for plastic degradation: 14.4 µM
[1]; 60 °C
  Proxy for plastic degradation: 14.9 µM

B3: unnamed (protein)
chain: MNFPRASRLMQAAVLGGLMAVSAAATAQTNPYARGPNPTAASLEASAGPFTVRSFTVSRPSGYGAGTVYYPTNAGGTVGAIAIVPGYTARQSSIKWWGPRLASHGFVVITIDTNSTLDQPSSRSSQQMAALRQVASLNGTSSSPIYGKVDTARMGVMGWSMGGGGSLISAANNPSLKAAAPQAPWDSSTNFSSVTVPTLIFACENDSIAPVNSSALPIYDSMSRNAKQFLEINGGSHSCANSGNSNQALIGKKGVAWMKRFMDNDTRYSTFACENPNSTRVSDFRTANCS
[1]; 30 °C, part of the chain shown
  Proxy for plastic degradation: 37.5 µM
[1]; 40 °C, part of the chain shown
  Proxy for plastic degradation: 31.2 µM
[1]; 50 °C, part of the chain shown
  Proxy for plastic degradation: 18 µM
[1]; 55 °C, part of the chain shown
  Proxy for plastic degradation: 15.4 µM
[1]; 60 °C, part of the chain shown
  Proxy for plastic degradation: 15.6 µM
pNPB
  Proxy for plastic degradation: 18300
PET [2]; 30 °C, part of the chain shown
  Proxy for plastic degradation: 37.5 µM
PET [2]; 40 °C, part of the chain shown
  Proxy for plastic degradation: 31.2 µM
PET [2]; 50 °C, part of the chain shown
  Proxy for plastic degradation: 18 µM
PET [2]; 55 °C, part of the chain shown
  Proxy for plastic degradation: 15.6 µM
PET [2]; 60 °C, part of the chain shown
  Proxy for plastic degradation: 0 µM
PET [2]; pH 9, 30 °C, 24 h, part of the chain shown
  Proxy for plastic degradation: 70.2 µM
PET [2]; pH 9, 30 °C, 48 h, part of the chain shown
  Proxy for plastic degradation: 69.5 µM
PET [2]; pH 9, 30 °C, 72 h, part of the chain shown
  Proxy for plastic degradation: 15.4 µM
PET [3]; 30 °C
  Proxy for plastic degradation: 37.5 µM
PET [3]; 40 °C
  Proxy for plastic degradation: 31.2 µM
PET [3]; 50 °C
  Proxy for plastic degradation: 18 µM
PET [3]; 55 °C
  Proxy for plastic degradation: 15.4 µM
PET [3]; 60 °C
  Proxy for plastic degradation: 15.6 µM

B4: unnamed (protein)
chain: APPDYGLPGSYPVAYSDVTAVAGGRSVPARVHYPATTSGTNQPVATGRFPVIA
pNPB
  Proxy for plastic degradation: 13000
PET [3]; 30 °C
  Proxy for plastic degradation: 13 µM
PET [3]; 40 °C
  Proxy for plastic degradation: 18 µM
PET [3]; 50 °C
  Proxy for plastic degradation: 16.6 µM
PET [3]; 55 °C
  Proxy for plastic degradation: 16.2 µM
PET [3]; 60 °C
  Proxy for plastic degradation: 16.5 µM

B5: unnamed (protein)
chain: MNFPRASRLMQAAVLGGLMAVSAAATAQTNPYARGPNPTAASLEASAGPFTVRSFTVSRPSGYGAGTVYYPTNAGGTVGAIAIVPGYTARQSSIKWWGPRLASHGFVVITIDTNSTLDQPESRSSQQMAALRQVASLNGTSSSPIYGKVDTARMGVMGWSMGGGGSLISAANNPSLKAAAPQAPWHSSTNFSSVTVPTLIFACENDSIAPVNSSALPIYDSMSQNAKQFLEIKGGSHSCANSGNSNQALIGKKGVAWMKRFMDNDTRYSTFACENPNSTAVSDFRTANCS
PET [4]
  Proxy for plastic degradation: 0.141
[5]; 30 °C
  Proxy for plastic degradation: 213 µM
[5]; 40 °C
  Proxy for plastic degradation: 272 µM
[5]; 50 °C
  Proxy for plastic degradation: 2110 µM
[5]; 60 °C
  Proxy for plastic degradation: 58 µM

B6: unnamed (protein)
chain: MAVITPRRERSSLLSRALRFTAAAATALVTAVSLAAPAHAANPYERGPNPTDALLEARSGPFSVSEERASRFGADGFGGGTIYYPRENNTYGAVAISPGYTGTQASVAWLGKRIASHGFVVITIDTNTTLDQPDSRARQLNAALDYMINDASSAVRSRIDSSRLAVMGHSMGGGGSLRLASQRPDLKAAIPLTPWHLNKNWSSVRVPTLIIGADLDTIAPVLTHARPFYNSLPTSISKAYLELDGATHFAPNIPNKIIGKYSVAWLKRFVDNDTRYTQFLCPGPRDGLFGEVEEYRSTCPF
PET [2]; 30 °C
  Proxy for plastic degradation: 2.77 µM
PET [2]; 40 °C
  Proxy for plastic degradation: 2.15 µM
PET [2]; 50 °C
  Proxy for plastic degradation: 2.1 µM
PET [2]; 55 °C
  Proxy for plastic degradation: 2.23 µM
PET [2]; 60 °C
  Proxy for plastic degradation: 0 µM

B7: unnamed (protein)
chain: MAVMTPRRERSSLLSRALQVTAAAATALVTAVSLAAPAHAANPYERGPNPTDALLEASSGPFSVSEENVSRLSASGFGGGTIYYPRENNTYGAVAISPGYTGTEASIAWLGERIASHGFVVITIDTITTLDQPDSRAEQLNAALNHMINRASSTVRSRIDSSRLAVMGHSMGGGGTLRLASQRPDLKAAIPLTPWHLNKNWSSVTVPTLIIGADLDTIAPVATHAKPFYNSLPSSISKAYLELDGATHFAPNIPNKIIGKYSVAWLKRFVDNDTRYTQFLCPGPRDGLFGEVEEYRSTCPF
PET [2]; 30 °C
  Proxy for plastic degradation: 7.78 µM
PET [2]; 40 °C
  Proxy for plastic degradation: 26.7 µM
PET [2]; 50 °C
  Proxy for plastic degradation: 124 µM
PET [2]; 55 °C
  Proxy for plastic degradation: 850 µM
PET [2]; 60 °C
  Proxy for plastic degradation: 140 µM
